Measured values taken from PMC2190708 (Nucleic Acids Research, 2007).

Assays:
CthPnkp = biological target: T1, CthPnkp (Acetivibrio thermocellus, UniProt A3DJ38); test: p-nitrophenol release; assay type: biochemical; conditions: Tris-HCl pH 7.0, 0.5 mM MnCl2, data not shown
T1 sequence (A3DJ38 1-870): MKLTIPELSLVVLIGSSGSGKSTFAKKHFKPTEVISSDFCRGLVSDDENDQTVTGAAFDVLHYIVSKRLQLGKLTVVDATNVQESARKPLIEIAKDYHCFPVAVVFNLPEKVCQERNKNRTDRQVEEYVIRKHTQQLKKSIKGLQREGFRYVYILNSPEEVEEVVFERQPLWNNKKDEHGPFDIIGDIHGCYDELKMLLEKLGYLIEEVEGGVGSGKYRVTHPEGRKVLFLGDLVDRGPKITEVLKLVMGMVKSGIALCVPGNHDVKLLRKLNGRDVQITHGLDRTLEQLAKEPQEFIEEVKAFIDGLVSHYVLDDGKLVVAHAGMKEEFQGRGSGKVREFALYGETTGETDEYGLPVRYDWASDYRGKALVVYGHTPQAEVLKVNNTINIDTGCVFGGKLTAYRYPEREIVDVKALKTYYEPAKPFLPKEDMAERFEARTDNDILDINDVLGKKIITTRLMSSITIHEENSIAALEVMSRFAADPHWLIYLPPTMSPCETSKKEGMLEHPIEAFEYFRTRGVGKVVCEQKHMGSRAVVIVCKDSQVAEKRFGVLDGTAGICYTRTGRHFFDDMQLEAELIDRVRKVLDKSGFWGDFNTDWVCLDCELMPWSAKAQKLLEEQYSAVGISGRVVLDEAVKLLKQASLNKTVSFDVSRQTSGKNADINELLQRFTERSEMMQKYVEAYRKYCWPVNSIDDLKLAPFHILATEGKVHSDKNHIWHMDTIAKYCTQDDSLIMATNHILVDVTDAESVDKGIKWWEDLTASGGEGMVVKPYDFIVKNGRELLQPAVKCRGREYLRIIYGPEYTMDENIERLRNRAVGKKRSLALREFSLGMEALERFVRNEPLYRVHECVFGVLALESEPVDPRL

purified protein [1] = substrate: O=[N+]([O-])c1ccc(OP(=O)(O)Oc2ccc([N+](=O)[O-])cc2)cc1; test: purified protein; conditions: Mn2+; exact conditions of titration not given, data not shown
purified protein [2] = substrate: O=[N+]([O-])c1ccc(OP(=O)(O)O)cc1; test: purified protein; conditions: Mn2+; exact conditions of titration not given, data not shown

Molecule | Km (CthPnkp) | Km (purified protein [1]) | Km (purified protein [2])
O=[N+]([O-])c1ccc(OP(=O)(O)c2ccccc2)cc1 [compound ②, p-nitrophenyl phenylphosphonate] | 67 mM | – | –
λ-Pase (Escherichia phage Lambda) (protein) MRYYEKIDGSKYRNIWVVGDLHGCYTNLMNKLDTIGFDNKKDLLISVGDLVDRGAENVECLELITFPWFRAVRGNHEQMMIDGLSERGNVNHWLLNGGGWFFNLDYDKEILAKALAHKADELPLIIELVSKDKKYVICHADYPFDEYEFGKPVDHQQVIWNRERISNSQNGIVKEIKGADTFIFGHTPAVKPLKFANQMYIDTGAVFCGNLTLIQVQGEGA | – | 10 ± 1.6 mM | 5.0 ± 0.1 mM
